Data reported in publication PMC8956599.

Target: T1, translation initiation factor IF3 (Escherichia coli) (UniProt P0A707)
T1 sequence: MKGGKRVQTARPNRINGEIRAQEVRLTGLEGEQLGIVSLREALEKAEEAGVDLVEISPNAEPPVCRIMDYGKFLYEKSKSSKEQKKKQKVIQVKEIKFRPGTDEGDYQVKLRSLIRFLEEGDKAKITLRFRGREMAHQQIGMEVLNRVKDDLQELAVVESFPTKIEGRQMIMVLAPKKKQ
Assay: fluorescence anisotropy
Details: Binding buffer and temperature not given in material; EMSA gels in Tris/acetate or Tris/borate; anisotropy with 200 nM RNA and DFHBI-1T; protein storage buffer …

GGGUGGUAACUAGCCAAGCAGCUAGUUACCAAAUCGGGAGAAUCCCGGGUCCUCUCUUUAGGGGGAGGUCCCUGGGCCGAAGCCCGCCCACCUUUCGGUGGAGCCGGACCGCUUUCGCACCCGUGCUCUUUCGAGCACACCCACCCCGUUUACGGGGGUCCCUCGGUCAGCUACCGAGGAGUUGCCAUGUGUAUGUGGGAGACGGUCGGGUCCAGAUAUUCGUAUCUGUCGAGUAGAGUGUGGGCUCCCACAUACUCUGAUGAUCCUUCGGGAUCAUUCAUGGCAAAAACCUCCUAGGAAUGGAAUUCCGGCUACCUACAGCGAUAGCCAUGGUAGCGUCUCGCUAAAGACAUUAAAAAUGGCAUUAGCUCGACAGGAAGUUGAGCAGGACCCCGAAAGGGGUCCCACCC [[F30-Bro(+)]UTR(-)]
Kd: 3.5 µM
